Measurements as given in patent US20020197616A1 (REGENTS OF THE UNIVERSITY OF MICHIGAN, published 2002).

B1: Ced-4 (other, UniProt P30429 1-549, looked up)
chain: MLCEIECRALSTAHTRLIHDFEPRDALTYLEGKNIFTEDHSELISKMSTRLERIANFLRIYRRQASELGPLIDFFNYNNQSHLADFLEDYIDFAINEPDLLRPVVIAPQFSRQMLDRKLLLGNVPKQMTCYIREYHVDRVIKKLDEMCDLDSFFLFLHGRAGSGKSVIASQALSKSDQLIGINYDSIVWLKDSGTAPKSTFDLFTDILLMLKSEDDLLNFPSVEHVTSVVLKRMICNALIDRPNTLFVFDDVVQEETIRWAQELRLRCLVTTRDVEISNAASQTCEFIEVTSLEIDECYDFLEAYGMPMPVGEKEEDVLNKTIELSSGNPATLMMFFKSCEPKTFEKMAQLNNKLESRGLVGVECITPYSYKSLAMALQRCVEVLSDEDRSALAFAVVMPPGVDIPVKLWSCVIPVDICSNEEEQLDDEVADRLKRLSKRGALLSGKRMPVLTFKIDHIIHMFLKHVVDAQTIANGISILEQRLLEIGNNNVSVPERHIPSHFQKFRRSSASEMYPKTTEETVIRPEDFPKFMQLHQKFYDSLKNFACC
notes: Construct and tag not described
B2: TRAF-1 (other, UniProt Q13077 1-416, looked up)
chain: MASSSGSSPRPAPDENEFPFGCPPTVCQDPKEPRALCCAGCLSENPRNGEDQICPKCRGEDLQSISPGSRLRTQEKAHPEVAEAGIGCPFAGVGCSFKGSPQSVQEHEVTSQTSHLNLLLGFMKQWKARLGCGLESGPMALEQNLSDLQLQAAVEVAGDLEVDCYRAPCSESQEELALQHFMKEKLLAELEGKLRVFENIVAVLNKEVEASHLALATSIHQSQLDRERILSLEQRVVELQQTLAQKDQALGKLEQSLRLMEEASFDGTFLWKITNVTRRCHESACGRTVSLFSPAFYTAKYGYKLCLRLYLNGDGTGKRTHLSLFIVIMRGEYDALLPWPFRNKVTFMLLDQNNREHAIDAFRPDLSSASFQRPQSETNVASGCPLFFPLSKLQSPKHAYVKDDTMFLKCIVETST
notes: as for B1
B3: TRAF-2 (other, UniProt Q12933 1-501, looked up)
chain: MAAASVTPPGSLELLQPGFSKTLLGTKLEAKYLCSACRNVLRRPFQAQCGHRYCSFCLASILSSGPQNCAACVHEGIYEEGISILESSSAFPDNAARREVESLPAVCPSDGCTWKGTLKEYESCHEGRCPLMLTECPACKGLVRLGEKERHLEHECPERSLSCRHCRAPCCGADVKAHHEVCPKFPLTCDGCGKKKIPREKFQDHVKTCGKCRVPCRFHAIGCLETVEGEKQQEHEVQWLREHLAMLLSSVLEAKPLLGDQSHAGSELLQRCESLEKKTATFENIVCVLNREVERVAMTAEACSRQHRLDQDKIEALSSKVQQLERSIGLKDLAMADLEQKVLEMEASTYDGVFIWKISDFARKRQEAVAGRIPAIFSPAFYTSRYGYKMCLRIYLNGDGTGRGTHLSLFFVVMKGPNDALLRWPFNQKVTLMLLDQNNREHVIDAFRPDVTSSSFQRPVNDMNIASGCPLFCPVSKMEAKNSYVRDDAIFIKAIVDLTGL
notes: as for B1
B4: RIP (enzyme, UniProt Q13546 1-671, looked up)
chain: MQPDMSLNVIKMKSSDFLESAELDSGGFGKVSLCFHRTQGLMIMKTVYKGPNCIEHNEALLEEAKMMNRLRHSRVVKLLGVIIEEGKYSLVMEYMEKGNLMHVLKAEMSTPLSVKGRIILEIIEGMCYLHGKGVIHKDLKPENILVDNDFHIKIADLGLASFKMWSKLNNEEHNELREVDGTAKKNGGTLYYMAPEHLNDVNAKPTEKSDVYSFAVVLWAIFANKEPYENAICEQQLIMCIKSGNRPDVDDITEYCPREIISLMKLCWEANPEARPTFPGIEEKFRPFYLSQLEESVEEDVKSLKKEYSNENAVVKRMQSLQLDCVAVPSSRSNSATEQPGSLHSSQGLGMGPVEESWFAPSLEHPQEENEPSLQSKLQDEANYHLYGSRMDRQTKQQPRQNVAYNREEERRRRVSHDPFAQQRPYENFQNTEGKGTAYSSAASHGNAVHQPSGLTSQPQVLYQNNGLYSSHGFGTRPLDPGTAGPRVWYRPIPSHMPSLHNIPVPETNYLGNTPTMPFSSLPPTDESIKYTIYNSTGIQIGAYNYMEIGGTSSSLLDSTNTNFKEEPAAKYQAIFDNTTSLTDKHLDPIRENLGKHWKNCARKLGFTQSQIDEIDHDYERDGLKEKVYQMLQKWVMREGIKGATVGKLAQALHQCSRIDLLSSLIYVSQN
notes: as for B1
B5: TRADD (other, UniProt Q15628 1-312, looked up)
chain: MAAGQNGHEEWVGSAYLFVESSLDKVVLSDAYAHPQQKVAVYRALQAALAESGGSPDVLQMLKIHRSDPQLIVQLRFCGRQPCGRFLRAYREGALRAALQRSLAAALAQHSVPLQLELRAGAERLDALLADEERCLSCILAQQPDRLRDEELAELEDALRNLKCGSGARGGDGEVASAPLQPPVPSLSEVKPPPPPPPAQTFLFQGQPVVNRPLSLKDQQTFARSVGLKWRKVGRSLQRGCRALRDPALDSLAYEYEREGLYEQAFQLLRRFVQAEGRRATLQRLVEALEENELTSLAEDLLGLTDPNGGLA
notes: as for B1
B6: IKKα (enzyme, UniProt O15111 1-745, looked up)
chain: MERPPGLRPGAGGPWEMRERLGTGGFGNVCLYQHRELDLKIAIKSCRLELSTKNRERWCHEIQIMKKLNHANVVKACDVPEELNILIHDVPLLAMEYCSGGDLRKLLNKPENCCGLKESQILSLLSDIGSGIRYLHENKIIHRDLKPENIVLQDVGGKIIHKIIDLGYAKDVDQGSLCTSFVGTLQYLAPELFENKPYTATVDYWSFGTMVFECIAGYRPFLHHLQPFTWHEKIKKKDPKCIFACEEMSGEVRFSSHLPQPNSLCSLVVEPMENWLQLMLNWDPQQRGGPVDLTLKQPRCFVLMDHILNLKIVHILNMTSAKIISFLLPPDESLHSLQSRIERETGINTGSQELLSETGISLDPRKPASQCVLDGVRGCDSYMVYLFDKSKTVYEGPFASRSLSDCVNYIVQDSKIQLPIIQLRKVWAEAVHYVSGLKEDYSRLFQGQRAAMLSLLRYNANLTKMKNTLISASQQLKAKLEFFHKSIQLDLERYSEQMTYGISSEKMLKAWKEMEEKAIHYAEVGVIGYLEDQIMSLHAEIMELQKSPYGRRQGDLMESLEQRAIDLYKQLKHRPSDHSYSDSTEMVKIIVHTVQSQDRVLKELFGHLSKLLGCKQKIIDLLPKVEVALSNIKEADNTVMFMQGKRQKEIWHLLKIACTQSSARSLVGSSLEGAVTPQTSAWLPPTSAEHDHSLSCVVTPQDGETSAQMIEENLNCLGHLSTIIHEANEEQGNSMMNLDWSWLTE
notes: Construct and tag not described for this test
B7: RICKΔCARD (residues 1-374), Flag-tagged (other, not shown: small tags and cut ends)
chain: MNGEAICSALPTIPYHKLADLRYLSRGASGTVSSARHADWRVQVAVKHLHIHTPLLDSERKDVLREAEILHKARFSYILPILGICNEPEFLGIVTEYMPNGSLNELLHRKTEYPDVAWPLRFRILHEIALGVNYLHNMTPPLLHHDLKTQNILLDNEFHVKIADFGLSKWRMMSLSQSRSSKSAPEGGTIIYMPPENYEPGQKSRASIKHDIYSYAVITWEVLSRKQPFEDVTNPLQIMYSVSQGHRPVINEESLPYDIPHRARMISLIESGWAQNPDERPSFLKCLIELEPVLRTFEEITFLEAVIQLKKTKLQSVSSAIHLCDKKKMELSLNIPVNHGPQEESCGSSQLHENSGSPETSRSLPAPQDNDFLS
notes: also called pcDNA3-Flag-RICK(1-374)
B8: IKKβ (enzyme, UniProt O14920 1-756, looked up)
chain: MSWSPSLTTQTCGAWEMKERLGTGGFGNVIRWHNQETGEQIAIKQCRQELSPRNRERWCLEIQIMRRLTHPNVVAARDVPEGMQNLAPNDLPLLAMEYCQGGDLRKYLNQFENCCGLREGAILTLLSDIASALRYLHENRIIHRDLKPENIVLQQGEQRLIHKIIDLGYAKELDQGSLCTSFVGTLQYLAPELLEQQKYTVTVDYWSFGTLAFECITGFRPFLPNWQPVQWHSKVRQKSEVDIVVSEDLNGTVKFSSSLPYPNNLNSVLAERLEKWLQLMLMWHPRQRGTDPTYGPNGCFKALDDILNLKLVHILNMVTGTIHTYPVTEDESLQSLKARIQQDTGIPEEDQELLQEAGLALIPDKPATQCISDGKLNEGHTLDMDLVFLFDNSKITYETQISPRPQPESVSCILQEPKRNLAFFQLRKVWGQVWHSIQTLKEDCNRLQQGQRAAMMNLLRNNSCLSKMKNSMASMSQQLKAKLDFFKTSIQIDLEKYSEQTEFGITSDKLLLAWREMEQAVELCGRENEVKLLVERMMALQTDIVDLQRSPMGRKQGGTLDDLEEQARELYRRLREKPRDQRTEGDSQEMVRLLLQAIQSFEKKVRVIYTQLSKTVVCKQKALELLPKVEEVVSLMNEDEKTVVRLQEKRQKELWNLLKIACSKVRGPVSGSPDSMNASRLSQPGQLMSQPSTASNSLPEPAKKSEELVAEAHNLCTLLENAIQDTVREQDQSFTALDWSWLQTEEEEHSCLEQAS
notes: as for B6
B9: caspase-1 (enzyme, UniProt P29466 1-404, looked up)
chain: MADKVLKEKRKLFIRSMGEGTINGLLDELLQTRVLNKEEMEKVKRENATVMDKTRALIDSVIPKGAQACQICITYICEEDSYLAGTLGLSADQTSGNYLNMQDSQGVLSSFPAPQAVQDNPAMPTSSGSEGNVKLCSLEEAQRIWKQKSAEIYPIMDKSSRTRLALIICNEEFDSIPRRTGAEVDITGMTMLLQNLGYSVDVKKNLTASDMTTELEAFAHRPEHKTSDSTFLVFMSHGIREGICGKKHSEQVPDILQLNAIFNMLNTKNCPSLKDKPKVIIIQACRGDSPGVVWFKDSVGVSGNLSLPTTEEFEDDAIKKAHIEKDFIAFCSSTPDNVSWRHPTMGSVFIGRLIEHMQEYACSCDVEEIFRKVRFSFEQPDGRAQMPTTERVTLTRCFYLFPGH
notes: as for B1
B10: caspase-4 (enzyme, UniProt P49662 1-377, looked up)
chain: MAEGNHRKKPLKVLESLGKDFLTGVLDNLVEQNVLNWKEEEKKKYYDAKTEDKVRVMADSMQEKQRMAGQMLLQTFFNIDQISPNKKAHPNMEAGPPESGESTDALKLCPHEEFLRLCKERAEEIYPIKERNNRTRLALIICNTEFDHLPPRNGADFDITGMKELLEGLDYSVDVEENLTARDMESALRAFATRPEHKSSDSTFLVLMSHGILEGICGTVHDEKKPDVLLYDTIFQIFNNRNCLSLKDKPKVIIVQACRGANRGELWVRDSPASLEVASSQSSENLEEDAVYKTHVEKDFIAFCSSTPHNVSWRDSTMGSIFITQLITCFQKYSWCCHLEEVFRKVQQSFETPRAKAQMPTIERLSMTRYFYLFPGN
notes: as for B1
B11: procaspase-9 (enzyme, UniProt P55211 1-416, looked up)
chain: MDEADRRLLRRCRLRLVEELQVDQLWDALLSRELFRPHMIEDIQRAGSGSRRDQARQLIIDLETRGSQALPLFISCLEDTGQDMLASFLRTNRQAAKLSKPTLENLTPVVLRPEIRKPEVLRPETPRPVDIGSGGFGDVGALESLRGNADLAYILSMEPCGHCLIINNVNFCRESGLRTRTGSNIDCEKLRRRFSSLHFMVEVKGDLTAKKMVLALLELAQQDHGALDCCVVVILSHGCQASHLQFPGAVYGTDGCPVSVEKIVNIFNGTSCPSLGGKPKLFFIQACGGEQKDHGFEVASTSPEDESPGSNPEPDATPFQEGLRTFDQLDAISSLPTPSDIFVSYSTFPGFVSWRDPKSGSWYVETLDDIFEQWAHSEDLQSLLLRVANAVSVKGIYKQMPGCFNFLRKKLFFKTS
notes: as for B1

Molecular target: T1, Nod2 (wild-type, HA-tagged) (human, UniProt Q9HC29 1-1040)
T1 construct: Expressed in HEK293T cells and tested in cell extracts by co-immunoprecipitation; also called Nod2a; wt Nod2; not shown: HA tag; the plasmid is named both pcDNA3-Nod2-HA and pcDNA3-HA-Nod2, so the end that carries the ta
T1 sequence (Q9HC29 whole entry): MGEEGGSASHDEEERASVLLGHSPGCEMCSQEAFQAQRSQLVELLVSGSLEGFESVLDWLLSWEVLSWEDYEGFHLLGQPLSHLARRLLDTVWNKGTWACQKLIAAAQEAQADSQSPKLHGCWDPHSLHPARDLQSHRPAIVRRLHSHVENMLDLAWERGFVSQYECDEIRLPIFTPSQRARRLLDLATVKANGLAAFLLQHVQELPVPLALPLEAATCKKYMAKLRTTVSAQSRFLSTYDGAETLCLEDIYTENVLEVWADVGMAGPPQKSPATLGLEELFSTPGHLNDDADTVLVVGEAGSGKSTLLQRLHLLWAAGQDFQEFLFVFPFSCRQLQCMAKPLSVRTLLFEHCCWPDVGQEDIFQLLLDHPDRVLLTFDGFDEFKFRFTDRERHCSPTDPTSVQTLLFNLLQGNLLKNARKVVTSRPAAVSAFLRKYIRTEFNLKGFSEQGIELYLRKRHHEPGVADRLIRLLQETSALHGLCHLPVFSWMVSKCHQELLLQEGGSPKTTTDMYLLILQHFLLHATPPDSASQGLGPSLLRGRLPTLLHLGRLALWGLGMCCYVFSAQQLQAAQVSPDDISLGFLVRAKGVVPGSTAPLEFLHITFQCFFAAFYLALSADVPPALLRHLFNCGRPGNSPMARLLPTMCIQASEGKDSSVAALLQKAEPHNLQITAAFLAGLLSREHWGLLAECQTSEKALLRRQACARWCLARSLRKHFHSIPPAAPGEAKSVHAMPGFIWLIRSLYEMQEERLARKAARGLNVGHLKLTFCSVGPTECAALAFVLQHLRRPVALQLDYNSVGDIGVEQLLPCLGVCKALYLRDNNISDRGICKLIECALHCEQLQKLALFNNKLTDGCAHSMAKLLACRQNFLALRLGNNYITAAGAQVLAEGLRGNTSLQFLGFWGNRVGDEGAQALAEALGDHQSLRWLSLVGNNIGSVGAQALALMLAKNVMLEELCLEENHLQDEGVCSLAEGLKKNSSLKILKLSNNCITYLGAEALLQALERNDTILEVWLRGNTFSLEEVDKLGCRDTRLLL
Test: co-immunoprecipitation, HEK293T extracts
From the text: Proteins co-immunoprecipitated with anti-HA antibody were detected with anti-Flag antibody. […] Proteins in total lysate were detected by anti-Flag and anti-HA monoclonal antibody, respectively. […]

| Binder | binding result |
| --- | --- |
| B1 | no binding |
| B2 | no binding |
| B3 | no binding |
| B4 | no binding |
| B5 | no binding |
| B6 | no binding |
| B7 | no binding |
| B8 | no binding |
| B9 | no binding |
| B10 | no binding |
| B11 | no binding |
